Data reported in patent US20180201654A1, “PEPTIDE INHIBITORS OF HAUSP DEUBIQUITINASE” (priority 2012, published 2018).

Molecular target: HAUSP TRAF domain (HAUSP^62-205) (human), Q93009
Test: ITC, titration against the HAUSP TRAF domain, 20 C

Chain of HAUSP TRAF domain (HAUSP^62-205) (human), Q93009 (Q93009 62-205): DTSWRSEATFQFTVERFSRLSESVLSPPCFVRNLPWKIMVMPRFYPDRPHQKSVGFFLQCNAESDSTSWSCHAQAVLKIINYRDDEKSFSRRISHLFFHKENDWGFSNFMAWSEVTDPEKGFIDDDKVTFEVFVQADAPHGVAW

| Binder | Ka [M⁻¹] | Kd [nM] | TΔS [kcal/mol] | n | ΔG [kcal/mol] | ΔH [kcal/mol] |
| --- | --- | --- | --- | --- | --- | --- |
| EQGPADDPGEGPSTG (modifications not checked) [EBNA1^435-449 peptide] | 2.1e+06 | 480 | -8.69 | 0.81 | -8.48 | -17.2 |
| EGASTSGM (modifications not checked) [vIRF4^209-216 peptide] | 100000 | – | -10.3 | 0.81 | -6.74 | -17.1 |
